Experiments:
[1] = target: T1, α5β1 integrin on the cell surface of COLO 357 (Homo sapiens, UniProt P05556+P08648); experiment: FACS analysis of cancer cell line with IIA1; type: binding; conditions: COLO 357 (pancreas); IIA1 10 μg/ml; background MFI ~5
T1 construct: endogenous in cells
Experimental: (§1) Cells were removed with 5 mM EDTA in Tris-HCl (pH 8.0) and blocked by centrifugation in Hank's balanced salt solution containing 3% heat inactivated FBS, 1% normal goat serum (Sigma) and 1% BSA at 4° C. for 5 minutes. Cells were incubated for 30-60 minutes at 4° C. with the mouse anti-α5β1 antibody, IIA1 (10 μg/ml) in FACS buffer (PBS containing 0.1% BSA). Excess monoclonal antibody was removed by centrifugation and cells were washed two times with FACS buffer prior to resuspending in PE-anti-mouse IgG (H+ L) antibody (Southern Biotech, 1:400 dilution) for 30-60 minutes at 4° C. After washing cells were re-suspended in FACS buffer containing propidium iodide (1 μg/ml). Mean fluorescence intensity (MFI) was measured on a FACSCalibur (Becton Dickinson). Background MFI was ˜5.

[2] = target: T2, α5β1 integrin on the cell surface of DU145 (Homo sapiens, UniProt P05556+P08648); experiment: FACS analysis of cancer cell line with IIA1; type: binding; conditions: DU145 (prostate); IIA1 10 μg/ml; background MFI ~5
T2 construct: endogenous in cells
T2 sequence (P08648 42-894 limits assumed): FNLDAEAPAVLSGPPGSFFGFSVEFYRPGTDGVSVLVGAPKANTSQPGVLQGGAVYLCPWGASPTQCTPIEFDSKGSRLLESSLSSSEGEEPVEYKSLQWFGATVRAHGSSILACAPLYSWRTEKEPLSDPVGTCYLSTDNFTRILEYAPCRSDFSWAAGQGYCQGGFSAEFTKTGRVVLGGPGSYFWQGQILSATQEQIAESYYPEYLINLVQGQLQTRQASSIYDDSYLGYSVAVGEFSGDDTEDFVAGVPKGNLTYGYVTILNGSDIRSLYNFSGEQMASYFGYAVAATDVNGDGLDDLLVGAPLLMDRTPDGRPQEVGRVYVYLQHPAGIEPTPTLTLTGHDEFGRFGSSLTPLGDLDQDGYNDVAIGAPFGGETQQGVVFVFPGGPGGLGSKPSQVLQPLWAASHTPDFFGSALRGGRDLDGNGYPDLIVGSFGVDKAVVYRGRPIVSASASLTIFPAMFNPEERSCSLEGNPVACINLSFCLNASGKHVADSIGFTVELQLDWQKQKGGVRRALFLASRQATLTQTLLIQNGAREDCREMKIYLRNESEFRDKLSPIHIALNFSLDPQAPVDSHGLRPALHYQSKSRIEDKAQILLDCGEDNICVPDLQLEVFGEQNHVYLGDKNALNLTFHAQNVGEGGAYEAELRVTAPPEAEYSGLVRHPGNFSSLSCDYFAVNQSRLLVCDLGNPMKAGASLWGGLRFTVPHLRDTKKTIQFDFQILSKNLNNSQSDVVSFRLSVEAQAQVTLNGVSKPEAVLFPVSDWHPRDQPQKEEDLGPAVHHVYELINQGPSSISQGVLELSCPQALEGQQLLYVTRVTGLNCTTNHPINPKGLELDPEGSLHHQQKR
T2 sequence (P08648 895-1049 limits assumed): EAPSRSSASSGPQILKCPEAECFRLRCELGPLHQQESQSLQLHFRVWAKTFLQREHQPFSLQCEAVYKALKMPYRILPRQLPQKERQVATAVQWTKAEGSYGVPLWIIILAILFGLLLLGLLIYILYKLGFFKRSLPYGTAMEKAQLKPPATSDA
T2 sequence (P05556 21-798): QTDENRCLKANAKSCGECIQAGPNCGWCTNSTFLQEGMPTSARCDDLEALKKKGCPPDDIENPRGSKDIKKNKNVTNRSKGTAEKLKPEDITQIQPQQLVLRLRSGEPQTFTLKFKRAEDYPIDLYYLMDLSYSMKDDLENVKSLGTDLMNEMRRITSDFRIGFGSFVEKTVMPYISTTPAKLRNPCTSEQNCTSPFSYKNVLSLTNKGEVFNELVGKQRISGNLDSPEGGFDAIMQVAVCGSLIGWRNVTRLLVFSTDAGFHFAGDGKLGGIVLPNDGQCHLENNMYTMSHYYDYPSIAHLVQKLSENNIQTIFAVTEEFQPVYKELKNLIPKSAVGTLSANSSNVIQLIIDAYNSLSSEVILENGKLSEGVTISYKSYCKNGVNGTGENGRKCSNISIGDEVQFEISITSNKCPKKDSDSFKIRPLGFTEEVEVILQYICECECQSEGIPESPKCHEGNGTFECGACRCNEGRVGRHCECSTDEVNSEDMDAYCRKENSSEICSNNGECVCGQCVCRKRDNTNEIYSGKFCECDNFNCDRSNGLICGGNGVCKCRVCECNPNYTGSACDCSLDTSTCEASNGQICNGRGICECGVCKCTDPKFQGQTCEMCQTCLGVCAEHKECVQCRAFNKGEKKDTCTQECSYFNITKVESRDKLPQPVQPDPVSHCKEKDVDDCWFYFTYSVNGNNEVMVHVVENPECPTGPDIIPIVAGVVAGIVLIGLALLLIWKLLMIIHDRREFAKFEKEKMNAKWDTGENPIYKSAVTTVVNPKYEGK
Experimental: as §1

[3] = target: T3, α5β1 integrin on the cell surface of HT144 (Homo sapiens, UniProt P05556+P08648); experiment: FACS analysis of cancer cell line with IIA1; type: binding; conditions: HT144 (melanoma); IIA1 10 μg/ml; background MFI ~5
T3 construct: endogenous in cells
T3 sequence (P08648 42-894 limits assumed): as the sequence (P08648 42-894 limits assumed) above
T3 sequence (P08648 895-1049 limits assumed): as the sequence (P08648 895-1049 limits assumed) above
T3 sequence (P05556 21-798): as the sequence (P05556 21-798) above
Experimental: as §1

[4] = target: T4, α5β1 integrin on the cell surface of A375 (Homo sapiens, UniProt P05556+P08648); experiment: FACS analysis of cancer cell line with IIA1; type: binding; conditions: A375 (melanoma); IIA1 10 μg/ml; background MFI ~5
T4 construct: endogenous in cells
T4 sequence (P08648 42-894 limits assumed): as the sequence (P08648 42-894 limits assumed) above
T4 sequence (P08648 895-1049 limits assumed): as the sequence (P08648 895-1049 limits assumed) above
T4 sequence (P05556 21-798): as the sequence (P05556 21-798) above
Experimental: as §1

[5] = target: T5, α5β1 integrin on the cell surface of SW839 (Homo sapiens, UniProt P05556+P08648); experiment: FACS analysis of cancer cell line with IIA1; type: binding; conditions: SW839 (renal); IIA1 10 μg/ml; background MFI ~5
T5 construct: endogenous in cells
T5 sequence (P08648 42-894 limits assumed): as the sequence (P08648 42-894 limits assumed) above
T5 sequence (P08648 895-1049 limits assumed): as the sequence (P08648 895-1049 limits assumed) above
T5 sequence (P05556 21-798): as the sequence (P05556 21-798) above
Experimental: as §1

[6] = target: T6, α5β1 integrin on the cell surface of HT1376 (Homo sapiens, UniProt P05556+P08648); experiment: FACS analysis of cancer cell line with IIA1; type: binding; conditions: HT1376 (bladder); IIA1 10 μg/ml; background MFI ~5
T6 construct: endogenous in cells
T6 sequence (P08648 42-894 limits assumed): as the sequence (P08648 42-894 limits assumed) above
T6 sequence (P08648 895-1049 limits assumed): as the sequence (P08648 895-1049 limits assumed) above
T6 sequence (P05556 21-798): as the sequence (P05556 21-798) above
Experimental: as §1

[7] = target: T7, α5β1 integrin on the cell surface of EKVX (Homo sapiens, UniProt P05556+P08648); experiment: FACS analysis of cancer cell line with IIA1; type: binding; conditions: EKVX (lung); IIA1 10 μg/ml; background MFI ~5
T7 construct: endogenous in cells
Experimental: as §1

human NW231 tumors = experiment: NW231 xenograft tumor establishment, IIA1 with DOXIL; type: in vivo, SCID mice; conditions: 24 days post-implant (control TIB ~425 mm^3)
Experimental: The following experiment was conducted in order to determine the efficacy of the anti-α5β1 integrin antibody, IIA1 in combination with the chemotherapeutic agent, DOXIL®, for preventing establishment of human NW231 tumors in vivo. DOXIL® is a liposome encapsulated formulation of doxorubicin HCl, a cytotoxic anthracycline antibiotic isolated from Streptomyces peucetius. The NW231 cell line originated from breast cancer and is considered a good model for studying treatments for breast cancer.
Four to six week old female SCID mice obtained from Taconic Farms and maintained in micro-isolator cages were inoculated in the mammary fat pads with 1×10^7 NW231 cells. Animals received either TIB control (n=20) or […] (n=20) at 5 mg/kg for the first injection at the time of tumor cell inoculation. Subsequent treatments were at 0.7 mg/kg per injection. DOXIL® treatment was commenced 5 days post tumor cell inoculation. Chemotherapeutic doses were at 4 mg/kg for the first injection and at 2 mg/kg for subsequent injections. Reagents were delivered by intraperitoneal injection for four doses. Tumor volume was measured twice weekly and clinical and mortality observations were performed daily according to IACUC regulations.

[8] = target: α5β1 integrin binding to fibronectin (Homo sapiens, UniProt P05556+P08648); experiment: in vitro activity assay: inhibition of binding of α5β1 to fibronectin; type: biochemical
α5β1 integrin binding to fibronectin, sequence (P08648 42-894 limits assumed): as the sequence (P08648 42-894 limits assumed) above
α5β1 integrin binding to fibronectin, sequence (P08648 895-1049 limits assumed): as the sequence (P08648 895-1049 limits assumed) above
α5β1 integrin binding to fibronectin, sequence (P05556 21-798): as the sequence (P05556 21-798) above

angiogenesis = conditions: rabbit eye model; cited from earlier work
[9] = Phase I dose-escalation study: safety / adverse events; type: in vivo, human
Experimental: The dosing levels and schedule used in the study were as follows. M200 was administered to the 21 patients on days 1, 15, 22, 29, and 36. The dosing levels and numbers of patients per level were: 0.5 mg/kg (1 patient), 1.0 mg/kg (2 patient), 2.5 mg/kg (3 patients), 5.0 mg/kg (3 patients), 10.0 mg/kg (6 patients) and 15 mg/kg (6 patients). The dose was administered as an intravenous infusion over 1 hour. The first and second doses were separated by a two week period to allow sampling for single-dose pharmacokinetic data. The real-time PK measurements performed following the first dose were used to predict each patient's peak serum concentration following the fifth dose. If the predicted peak serum concentration following the fifth dose was <750 μg/mL, the patient received all 5 doses of M200. The remaining 3 doses were given weekly and followed by a 45-day evaluation period.
Adverse events were graded using the National Cancer Institute (NCI) Common Terminology Criteria for Adverse Events (CTCAE), version 3.0. Dose-limiting toxicity was defined as any Grade-3 or Grade-4 adverse event, excluding scheduled hospitalizations or elective surgeries. Grade-3 or Grade-4 adverse events thought to be unrelated to M200 were excluded where appropriate following a review with the medical monitor and regulatory agencies.

[10] = target: α5β1 integrin found in rabbit (Oryctolagus cuniculus, UniProt A0A5F9C3C4+A0A5F9CXX2); experiment: species cross-reactivity of anti-α5β1 antibody; type: binding
α5β1 integrin found in rabbit, sequence (A0A5F9CXX2 1-1041): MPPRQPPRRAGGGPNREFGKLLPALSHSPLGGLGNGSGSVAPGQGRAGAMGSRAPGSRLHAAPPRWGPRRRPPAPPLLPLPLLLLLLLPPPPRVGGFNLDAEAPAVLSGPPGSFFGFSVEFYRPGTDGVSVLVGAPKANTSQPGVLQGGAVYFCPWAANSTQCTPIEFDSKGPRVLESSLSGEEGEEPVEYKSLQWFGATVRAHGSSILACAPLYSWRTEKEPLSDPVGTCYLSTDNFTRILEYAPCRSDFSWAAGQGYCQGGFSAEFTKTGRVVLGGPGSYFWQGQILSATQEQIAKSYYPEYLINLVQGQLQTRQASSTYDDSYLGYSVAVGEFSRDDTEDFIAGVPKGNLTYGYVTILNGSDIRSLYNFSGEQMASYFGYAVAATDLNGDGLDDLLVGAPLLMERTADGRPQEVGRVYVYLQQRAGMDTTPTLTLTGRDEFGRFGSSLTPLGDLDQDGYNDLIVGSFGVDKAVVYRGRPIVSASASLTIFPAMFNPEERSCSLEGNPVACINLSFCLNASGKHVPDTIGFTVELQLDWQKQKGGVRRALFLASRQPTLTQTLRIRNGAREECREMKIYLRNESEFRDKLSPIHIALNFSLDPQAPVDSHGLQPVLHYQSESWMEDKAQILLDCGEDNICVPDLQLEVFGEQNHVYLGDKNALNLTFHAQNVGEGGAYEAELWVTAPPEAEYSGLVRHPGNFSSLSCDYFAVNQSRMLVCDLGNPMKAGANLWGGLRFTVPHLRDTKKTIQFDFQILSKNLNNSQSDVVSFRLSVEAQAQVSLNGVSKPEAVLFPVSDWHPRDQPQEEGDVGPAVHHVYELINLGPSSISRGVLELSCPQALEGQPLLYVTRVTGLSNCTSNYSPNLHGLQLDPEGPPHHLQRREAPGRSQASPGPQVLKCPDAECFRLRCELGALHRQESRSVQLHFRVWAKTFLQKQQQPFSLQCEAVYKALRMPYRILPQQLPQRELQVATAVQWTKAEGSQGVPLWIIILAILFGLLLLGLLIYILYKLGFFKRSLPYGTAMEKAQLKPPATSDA
α5β1 integrin found in rabbit, sequence (A0A5F9C3C4 21-798): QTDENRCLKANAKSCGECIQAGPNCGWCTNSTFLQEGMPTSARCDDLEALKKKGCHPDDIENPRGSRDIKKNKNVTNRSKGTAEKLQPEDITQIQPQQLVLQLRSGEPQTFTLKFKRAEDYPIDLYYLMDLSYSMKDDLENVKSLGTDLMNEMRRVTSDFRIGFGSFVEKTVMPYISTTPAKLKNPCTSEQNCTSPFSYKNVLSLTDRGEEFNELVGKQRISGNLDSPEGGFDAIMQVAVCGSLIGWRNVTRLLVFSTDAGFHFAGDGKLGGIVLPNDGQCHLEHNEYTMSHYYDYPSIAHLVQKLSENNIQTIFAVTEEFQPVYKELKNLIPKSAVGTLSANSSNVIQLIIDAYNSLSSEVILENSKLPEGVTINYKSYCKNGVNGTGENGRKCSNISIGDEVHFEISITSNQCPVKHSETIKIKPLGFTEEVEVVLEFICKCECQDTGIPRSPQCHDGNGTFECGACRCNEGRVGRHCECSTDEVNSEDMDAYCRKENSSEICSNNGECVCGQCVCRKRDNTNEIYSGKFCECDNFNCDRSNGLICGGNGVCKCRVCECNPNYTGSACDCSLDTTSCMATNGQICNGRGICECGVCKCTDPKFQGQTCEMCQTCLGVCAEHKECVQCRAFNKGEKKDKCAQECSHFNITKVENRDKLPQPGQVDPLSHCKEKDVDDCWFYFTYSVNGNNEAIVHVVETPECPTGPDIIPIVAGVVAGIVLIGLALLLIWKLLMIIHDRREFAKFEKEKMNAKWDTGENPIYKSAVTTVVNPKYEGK

[11] = Phase I dose-escalation study: pharmacokinetics (serum ELISA)
Experimental: The serum for measuring M200 concentrations was obtained immediately before and after the first dose, and at 4, 24, 48, and 168 hours after completion of the first dose. Serum samples for measuring M200 concentrations were also taken immediately before, at the end, and 4 hours after the completion of each subsequent infusion. These samples were split and aliquots assayed before the next dose and again at the end of the study: end of 1st dose, 168 hours after 1st dose, immediately pre-dose (trough) and immediately post-dose (peak) for the 2nd, 3rd, 4th and 5th doses. The serum levels of M200 were measured by ELISA.
The plasma concentration-time data of M200 from each patient was subjected to a PK analysis. The following parameters were included in the calculations: peak (Cmax) and trough (Cmin) levels, terminal phase half-life (T1/2 β), area under the plasma-concentration time curve (AUC), elimination clearance (CL), and volume of distribution (V). Summary parameters were computed across patients from each treatment group. Changes in the PK parameters as a function of dose and time were also evaluated.

[12] = Phase I dose-escalation study: immunogenicity (double-antigen bridging ELISA); type: in vivo, human
Experimental: Immunogenicity of M200 was determined by a double-antigen bridging ELISA assay. Serum samples for anti-M200 antibodies were obtained from patients before treatment, prior to the second dose, and at study exit, 45 days after the last dose of M200. In addition, serum for anti-M200 antibodies was drawn if the interval between doses was […]. Samples were stored and evaluated at the end of the study. Samples that tested positive for antibodies to M200 were re-assayed for neutralizing antibodies to M200. Patients with known exposure to murine or chimeric monoclonal antibodies were screened for the presence of anti-M200 antibodies prior to receiving the first dose of M200.

T1 sequence (P08648 42-894 limits assumed): as the sequence (P08648 42-894 limits assumed) above
T1 sequence (P08648 895-1049 limits assumed): as the sequence (P08648 895-1049 limits assumed) above
T1 sequence (P05556 21-798): as the sequence (P05556 21-798) above

Molecule | α5β1 Surface Expression (MFI) [1] [MFI] | α5β1 Surface Expression (MFI) [2] [MFI] | α5β1 Surface Expression (MFI) [3] [MFI] | α5β1 Surface Expression (MFI) [4] [MFI] | α5β1 Surface Expression (MFI) [5] [MFI] | α5β1 Surface Expression (MFI) [6] [MFI] | α5β1 Surface Expression (MFI) [7] [MFI] | mean tumor volume (human NW231 tumors) [mm^3] | concentration that produces 80% inhibition of binding of α5β1 to fibronectin [8] [µg/mL] | in vivo anti-angiogenic efficacy (angiogenesis) | dose-limiting toxicities ([9]; doses up to 15 mg/kg) | tolerability in patients ([9]; doses up to 15 mg/kg) | adverse events, intensity ([9]; fatigue, nausea, constipation, headache and anorexia) | infusion reaction ([9]; the one patient who received 0.5 mg/kg) | recognition of α5β1 integrin found in rabbit [10] | mean trough level ([11]; 10 mg/kg, two weeks after the 1st dose) [µg/mL] | pharmacokinetics, linearity ([11]; slower clearance at the higher concentrations) | patients tested positive for anti-M200 antibodies ([12]; 0.5 mg/kg and 1.0 mg/kg dose levels) | patients tested positive for anti-M200 ([12]; higher dose cohorts)
IIA1: parent mouse IgG1 class anti-α5β1 antibody shown to inhibit α5β1 integrin binding to fibronectin (antibody, V domains shown, mus muscalus) VH: MAVLGLLLCLVTFPSCVLSQVQLKESGPGLVAPSQSLSITCTISGFSLTDYGVHWVRQPPGKGLEWLVVIWSDGSSTYNSALKSRMTIRKDNSKSQVFLIMNSLQTDDSAMYYCARHGTYYGMTTTGDALDYWGQGTSVTVSS VL: MDFQVQIFSFLLISASVIMSRGQIVLTQSPAIMSASLGERVTMTCTASSSVSSNYLHWYQQKPGSAPNLWIYSTSNLASGVPARFSGSGSGTSYSLTISSMEAEDAATYYCHQYLRSPPTFGGGTKLEIK | 7.8 | 87.5 | 102.1 | 156.1 | 65.8 | 111.9 | 36.7 | ~175 |  |  |  |  |  |  |  |  |  |  | 
M200: chimeric IgG4 anti-α5β1 antibody derived from IIA1; generic name volociximab (antibody, V domains shown, chimeric antibody, chimeric IgG4 anti-α5β1 antibody derived from IIA1; generic name volociximab) VH: MAVLGLLLCLVTFPSCVLSQVQLKESGPGLVAPSQSLSITCTISGFSLTDYGVHWVRQPPGKGLEWLVVIWSDGSSTYNSALKSRMTIRKDNSKSQVFLIMNSLQTDDSAMYYCARHGTYYGMTTTGDALDYWGQGTSVTVSS VL: MDFQVQIFSFLLISASVIMSRGQIVLTQSPAIMSASLGERVTMTCTASSSVSSNYLHWYQQKPGSAPNLWIYSTSNLASGVPARFSGSGSGTSYSLTISSMEAEDAATYYCHQYLRSPPTFGGGTKLEIKDMSVDMSV |  |  |  |  |  |  |  |  | 1 | in vivo anti-angiogenic efficacy | no dose-limiting M200 toxicities were observed | well tolerated | generally mild to moderate in intensity | fever after the first dose | does recognize | 82 | non-linear pharmacokinetics | Three | No patients
